Measurements taken from publication PMC3229523, “Identification of Lactoferricin B Intracellular Targets Using an Escherichia coli Proteome Chip” (PLoS ONE, 2011).
Ends that are not written are not given here.

What was measured:
Assay in all cases: fluorescence polarisation; 100 nM DyLight 549-labeled LfcinB as tracer; two-fold serial dilution of protein from 0.4 µM to 0.025 µM in PBS, 0.005% BSA, 0.01% Triton X-100; room temperature, 1 h; compared with BSA
Conditions in all cases: both partners purified
MetL = target: T1, MetL (E. coli K-12, UniProt P00562 1-810)
T1 construct: MetL, E. coli K-12
T1 sequence (looked up): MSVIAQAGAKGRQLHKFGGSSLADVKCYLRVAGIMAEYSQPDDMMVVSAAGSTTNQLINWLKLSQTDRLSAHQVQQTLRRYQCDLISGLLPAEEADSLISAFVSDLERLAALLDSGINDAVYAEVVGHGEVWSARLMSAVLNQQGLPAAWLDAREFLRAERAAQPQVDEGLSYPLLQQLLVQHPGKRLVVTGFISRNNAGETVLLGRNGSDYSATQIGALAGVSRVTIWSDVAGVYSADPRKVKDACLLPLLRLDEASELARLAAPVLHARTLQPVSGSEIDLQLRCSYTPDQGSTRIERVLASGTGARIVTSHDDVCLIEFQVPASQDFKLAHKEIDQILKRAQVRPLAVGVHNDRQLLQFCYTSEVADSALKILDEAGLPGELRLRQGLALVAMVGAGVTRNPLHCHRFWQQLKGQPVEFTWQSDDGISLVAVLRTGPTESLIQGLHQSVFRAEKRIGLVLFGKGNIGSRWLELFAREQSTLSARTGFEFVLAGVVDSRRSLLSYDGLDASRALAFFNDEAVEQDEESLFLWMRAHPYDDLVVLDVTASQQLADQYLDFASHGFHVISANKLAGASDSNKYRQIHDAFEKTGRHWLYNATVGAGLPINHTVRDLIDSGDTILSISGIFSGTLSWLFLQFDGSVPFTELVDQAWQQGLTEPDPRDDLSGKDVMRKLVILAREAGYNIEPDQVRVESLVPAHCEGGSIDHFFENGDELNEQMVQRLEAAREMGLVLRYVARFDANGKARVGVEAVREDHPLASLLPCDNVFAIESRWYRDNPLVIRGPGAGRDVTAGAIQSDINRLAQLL

HyaF = target: T2, HyaF (E. coli K-12, UniProt P19932 1-285)
T2 construct: HyaF, E. coli K-12
T2 sequence (looked up): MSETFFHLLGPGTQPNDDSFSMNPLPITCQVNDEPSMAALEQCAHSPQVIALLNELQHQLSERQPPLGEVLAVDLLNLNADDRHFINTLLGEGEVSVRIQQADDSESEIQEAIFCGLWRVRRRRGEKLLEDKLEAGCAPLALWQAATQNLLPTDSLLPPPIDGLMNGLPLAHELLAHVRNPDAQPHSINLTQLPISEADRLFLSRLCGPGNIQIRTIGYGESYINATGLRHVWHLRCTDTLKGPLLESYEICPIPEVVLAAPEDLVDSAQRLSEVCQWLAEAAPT

[1] = target: T3, ribonucleoside-diphosphate reductase 2, β subunit (E. coli K-12, UniProt P37146 1-319)
T3 construct: NrdF, ribonucleoside-diphosphate reductase 2, β subunit, E. coli K-12; no measurement of the oligomer here; also called NrdF
T3 sequence (P37146 whole entry): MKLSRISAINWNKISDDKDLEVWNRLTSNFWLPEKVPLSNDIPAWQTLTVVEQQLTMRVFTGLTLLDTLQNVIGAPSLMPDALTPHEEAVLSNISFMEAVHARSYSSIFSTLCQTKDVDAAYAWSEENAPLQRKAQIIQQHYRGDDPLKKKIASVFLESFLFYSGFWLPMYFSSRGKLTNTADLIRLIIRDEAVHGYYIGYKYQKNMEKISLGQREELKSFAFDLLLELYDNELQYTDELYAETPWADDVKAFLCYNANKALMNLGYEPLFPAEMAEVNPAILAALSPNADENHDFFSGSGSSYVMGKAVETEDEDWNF

adenylate cyclase CyaA = target: T4, adenylate cyclase CyaA (E. coli K-12, UniProt P00936 1-848)
T4 construct: CyaA, adenylate cyclase, E. coli K-12
T4 sequence (looked up): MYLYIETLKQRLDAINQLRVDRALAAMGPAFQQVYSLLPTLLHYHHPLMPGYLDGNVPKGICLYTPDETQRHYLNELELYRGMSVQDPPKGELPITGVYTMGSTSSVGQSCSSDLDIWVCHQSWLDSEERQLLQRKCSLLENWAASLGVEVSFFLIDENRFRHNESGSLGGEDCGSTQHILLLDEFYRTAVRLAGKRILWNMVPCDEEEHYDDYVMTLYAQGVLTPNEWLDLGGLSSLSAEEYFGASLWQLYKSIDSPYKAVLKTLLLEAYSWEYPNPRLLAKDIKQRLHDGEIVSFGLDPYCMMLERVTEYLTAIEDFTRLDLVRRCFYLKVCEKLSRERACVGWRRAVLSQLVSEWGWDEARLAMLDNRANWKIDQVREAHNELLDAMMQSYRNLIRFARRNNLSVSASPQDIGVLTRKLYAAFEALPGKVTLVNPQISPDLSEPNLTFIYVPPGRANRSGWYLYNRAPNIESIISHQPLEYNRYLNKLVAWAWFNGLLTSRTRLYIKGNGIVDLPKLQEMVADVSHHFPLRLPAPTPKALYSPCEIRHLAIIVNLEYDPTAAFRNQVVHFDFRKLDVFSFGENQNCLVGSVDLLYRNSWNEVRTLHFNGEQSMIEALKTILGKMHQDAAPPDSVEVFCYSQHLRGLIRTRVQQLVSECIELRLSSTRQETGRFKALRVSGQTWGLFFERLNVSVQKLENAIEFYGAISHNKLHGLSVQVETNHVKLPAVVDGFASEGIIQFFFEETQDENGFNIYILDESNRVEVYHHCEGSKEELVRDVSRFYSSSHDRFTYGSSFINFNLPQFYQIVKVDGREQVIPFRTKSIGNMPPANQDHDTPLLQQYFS

Measured: binding result

B1: DyLight 549-labeled Lactoferricin B (peptide, UniProt P24627 36-60, looked up)
peptide: FKCRRWQWRMKKLGAPSITCVRRAF
modifications: ends and bridges not checked; also: DyLight 549 label, sites not given here
notes: lactoferricin B (LfcinB), cationic antimicrobial peptide of 25 amino acids; also called fluorescence-labeled LfcinB; LfcinB; source: bought: Kelowna Inc; labelled with DyLight 549-NHS ester, desalted
binds: MetL | HyaF | [1] | adenylate cyclase CyaA
